Our source for the self-cleavage values is the RNAGym collection of RNA variant scans (doi:10.7554/elife.80360).

B1: CPEB3 Ribozyme (parent)
chain: GGGGGCCACAGCAGAAGCGUUCACGUCGCGGCCCCUGUCAGAUUCUGGUGAAUCUGCGAAUUCUGCUGU

In the series the parent is B1. Put plainly: self-cleavage, relative activity (ratio to wild type); higher = more cleavage; co-transcriptional.
Consider G14U U36G, for which the self-cleavage came to 0.142.
In the case of G14U U36C it was 0.535; in that of A16C C24A, 0.161.
In the case of A16C C24U it was 0.164.
In the case of A15U C39U it was 0.583.
G14C U38C: the self-cleavage worked out at 0.284.
Next, G14C U38A: 0.308.
In the case of A15C U26G, the self-cleavage turned out to be 0.586.
In the case of A15G G17C it was 0.138; in that of A15G A52U, 0.959.
In the case of A15G A52G it was 1.03; in that of A16C U46C, 0.293; in that of A16C U46G, 0.309.
In the case of A15U C29U it was 0.151; in that of G14A G31U, 0.207; in that of G14C U69A, 0.769.
Take A15G G68U: the self-cleavage was 1.01.
Consider A15C U62G, for which the self-cleavage amounted to 1.02.
Next, A15C U62A: 0.912; A15C U62C: 0.841.
In the case of G14A U36G it was 0.134; in that of A15U U61A, 0.931.
In the case of A15U G41A it was 0.28; in that of G14U U49A, 0.858.
On to A16C G31U, for which the self-cleavage is 0.124.
In the case of A16C G31A it was 0.0686; in that of A16C G31C, 0.113.
For the variant A15G G41C, the self-cleavage is 0.777.
In the case of A15G G41A it was 0.732; in that of A15C A51G, 0.897; in that of A15C A51U, 0.826.
In the case of A15C C22A it was 0.148; in that of A15C C22G, 0.0813; in that of A15C A23U, 0.917.
Next, A15C A23G: 0.659; A15C A23C: 0.835; G14C C66G: 0.447.
With A15U G65U, the self-cleavage came to 0.47.
On to A15U G65A, for which the self-cleavage was 0.753.
Next, A15G U21C: 0.847.
For the variant A15U A42G, the self-cleavage turned out to be 0.68.
In the case of A15G C39U it was 0.893.
Next, A15G C39G: 0.928.
In the case of A16C G28U it was 0.113; in that of A15U U55G, 0.335.
For the variant G14U C22G, the self-cleavage was found to be 0.172.
Next, A15U C24A: 0.299; A15G A60U: 0.579.
For A15U G17C, the self-cleavage stood at 0.171.
For the variant A15C C34G, the self-cleavage came to 0.131.
Next, A15C C34U: 0.909.
With G14C C34U, the self-cleavage stood at 0.653.
Next, G14C U20G: 0.151; A15C G56C: 0.446.
Next, G14C U44C: 0.189; A16C G47U: 0.427.
For the variant A15U U46G, the self-cleavage worked out at 0.898.
A15U U46A: the self-cleavage came to 0.985.
Next, A15C G30C: 0.189; A16C G30A: 0.188; A16C G30U: 0.131.
On to A15C G50U, for which the self-cleavage was determined as 0.878.
G14U U61A: the self-cleavage is 0.461.
Regarding A16C U21C, the self-cleavage amounted to 0.174.
Next, G14C G56A: 0.31; A15G C32G: 0.415.
In the case of G14A G37U it was 0.138; in that of G14A G37C, 0.114; in that of A16C G65C, 0.174.
Regarding G14U G48U, the self-cleavage is 0.855.
In the case of G14U G48C it was 0.907; in that of G14C G19C, 0.126.
Regarding G14C G19U, the self-cleavage was 0.156.
In the case of G14U U62A it was 0.482.
In the case of A15U C27U it was 0.153; in that of A15U C45A, 0.795; in that of A15U C45U, 0.858.
Next, A15C A59G: 0.798; A15C A59U: 0.353.
In the case of G14U A60U, the self-cleavage is 0.331.
In the case of G14U A60C, the self-cleavage is 0.269.
Take A15U A52G: the self-cleavage was determined as 0.939.
Next, G14U U55A: 0.325; A15G C22A: 0.191; A15G C22G: 0.157.
In the case of A15C A52U it was 0.816.
In the case of A15C A52C it was 0.748; in that of G14C C35A, 0.173.
For G14U C39A, the self-cleavage was 0.223.
Next, A15C C66G: 0.351.
In the case of A15U U69A it was 0.961; in that of A15U U69C, 1.03; in that of A15G C66G, 0.862.
As to A15C U55G, the self-cleavage turned out to be 0.32.
Next, A15G U46A: 1.04.
As to A15G U46G, the self-cleavage amounted to 0.974.
Next, A15U U38C: 0.613; A15U U21A: 0.841.
Next, A15G C57U: 0.294; A15C A40U: 0.451; G14A U46A: 0.85.
For the variant A15U A51U, the self-cleavage was found to be 0.851.
A16C U61A: the self-cleavage came to 0.418.
Next, A16C U61C: 0.26.
In the case of G14U A59C it was 0.309; in that of G14U A59G, 0.753.
Next, A15C C45G: 0.865; A15C C45U: 0.949.
For the variant A15C C45A, the self-cleavage was determined as 0.772.
Take G14C A60C: the self-cleavage turned out to be 0.21.
Turning to G14C A60U, the self-cleavage came out at 0.249.
Next, A15C U21G: 0.157; G14A U53G: 0.344; G14A U53A: 0.362.
In the case of G14C A40U it was 0.199.
As to A16C U43C, the self-cleavage amounted to 0.204.
In the case of A16C U43G it was 0.198.
Next, G14U C27A: 0.172; G14U C27G: 0.154; A15G U62G: 0.94.
In the case of G14C G58U it was 0.817; in that of G14C G58C, 0.497.
Regarding A15C C57A, the self-cleavage turned out to be 0.282.
Next, A15C C57G: 0.269; G14C U26A: 0.346.
Take A15G U53A: the self-cleavage was 0.893.
Next, A15C C39A: 0.359.
Next, A15C C27A: 0.091; G14A U26C: 0.432.
In the case of G14A U26G it was 0.401.
With G14A U55A, the self-cleavage stood at 0.289.
Next, G14U C33G: 0.341.
In the case of G14C A52C it was 0.459; in that of G14C A52U, 0.562.
In the case of A15C G19A it was 0.185.
With A15C G19U, the self-cleavage stood at 0.164.
Take A15C G19C: the self-cleavage came out at 0.214.
Next, G14C C24G: 0.131; G14C C24A: 0.136.
Turning to A15G A16C, the self-cleavage was 0.145.
Next, A15U C33G: 0.294.
In the case of A16C A59U it was 0.221; in that of A16C A59C, 0.106.
Next, G14C U49C: 0.55; G14U U69C: 1.03; G14U U69A: 0.923.
As to G14U U69G, the self-cleavage is 0.94.
In the case of A15C C63A, the self-cleavage is 0.921.
For A15C C63U, the self-cleavage is 0.937.
On to G14U G19U, for which the self-cleavage stood at 0.17.
For the variant G14U G19C, the self-cleavage was determined as 0.15.
In the case of A15C G47A it was 0.889; in that of A15C G47C, 0.894.
In the case of A16C U62A it was 0.152; in that of A15G A23C, 0.919; in that of G14U U67A, 0.733.
Next, A15U G48U: 0.9.
For A15U G48C, the self-cleavage was 0.965.
Next, G14A U20C: 0.181; A16C A60C: 0.215.
With A15U C63G, the self-cleavage turned out to be 0.764.
For the variant G14U A42G, the self-cleavage came to 0.404.
With G14C G30U, the self-cleavage amounted to 0.157.
Turning to G14C G30C, the self-cleavage was 0.142.
In the case of G14A U49G, the self-cleavage came to 0.842.
Next, G14A U49A: 0.742; G14A U61G: 0.414.
